Patent US6524820B1, “Lectins and coding sequences” (University of Georgia Research Foundation, Inc., priority 1997, dated 2003)
Entries after “also recorded” stand apart in the source; their conditions may differ.

B1: HL-3: human calcium-dependent lectin family member, homolog of XL35, SEQ ID NO:4 (protein)
chain: MNQLSFLLFLIATTRGWSTDEANTYFKEWTCSSSPSLPRSCKEIKDECPSAFDGLYFLRTENGVIYQTFCDMTSGGGGWTLVASVHENDMRGKCTVGDRWSSQQGSKADYPEGDGNWANYNTFGSAEAATSDDYKNPGYYDIQAKDLGIWHVPNKSPMQHWRNSSLLRYRTDTGFLQTLGHNLFGIYQKYPVKYGEGKCWTDNGPVIPVVYDFGDAQKTASYYSPYGQREFTAGFVQFRVFNNERAANALCAGMRVTGCNTEHHCIGGGGYFPEASPQQCGDFSGFDWSGYGTHVGYSSSREITEAAVLLFYR
B2: XL35: soluble, calcium-dependent lectin from Xenopus laevis oocytes, SEQ ID NO:2 (protein)
chain: MLVHILLLLVTGGLSQSCDPVVIVASKNMVKQLDCDKFRNCKEIKDSNEEAQDGIYTLTSPDGISYQTFCDMTTNGGGWTLVASVHENNMAGKCTIGDRWSSQQGNRADYPEGDGNWANYNTFGSAGGATSDDYKNPGYYDIEAYNLGVWHVPNKTPLSVWRNSSLQRYRTTDGILFKHGGNLFSLYRIYPVKYGIGSCSKDSGPTVPVVYDLGSANLTASFYSPGFRSQFTPGYIQFRPINTEKAALALCPGMKMESCNVEHVCIGGGGYFPEADPRQCGDFAAYDFNGYGTKKFNSAGIEITEAAVLLFYL
B3: HL-13: human homolog of XL35 expressed in small intestine, SEQ ID NO:6 (protein)
chain: MLSMLRTMTRLCFLLFFSVATSGCSAAAASSLEMLSREFETCAFSFSSLPRSCKEIKERCHSAGDGLYFLRTKNGVVYQTFCDMTSGGGGWTLVASVHENDMRGKCTVGDRWSSQQGNKADYPEGDGNWANYNTFGSAEAATSDDYKNPGYYDIQAKDLGIWHVPNKSPMQHWRNSALLRYRTNTGFLQRLGHNLFGIYQKYPVKYRSGKCWNDNGPAIPVVYDFGDAKKTASYYSPYGQREFVAGFVQFRVFNNERAANALCAGIKVTGCNTEHHCIGGGGFFPQGKPRQCGDFSAFDWDGYGTHVKSSCSREITEAAVLLFYR

How the values were obtained:
[1] = Melibiose affinity chromatography (binding to immobilized melibiose); conditions: in the presence of Ca2+
Experimental: The rabbit, mouse, Xenopus laevis heart extracts, and various in vitro translation products were applied to a column of immobilized melibiose-agarose to analyze carbohydrate binding specificity. The heart extracts of rabbit, mouse, and Xenopus laevis were prepared by the method as described above and applied to a melibiose affinity column (total volume, 1 ml on Econo column) that was pre-equilibrated with TCS. After washing with 10 ml of TCS containing 0.3 M sucrose, bound protein was eluted with TCS containing 0.1 M EDTA. One ml of each fraction was collected and subjected to western blotting followed by 4-15% SDS-PAGE. Each 30 μl of in vitro translation product was diluted with 2×TCS (1:1) and applied to the melibiose column using same method. After separation of fractions on 4-15% SDS-PAGE, the results were analyzed by autoradiography.

[2] = Solubility of recombinant lectins in urea; assay type: physicochemical; conditions: bacterially expressed recombinant lectin
Experimental: Expression of human HL-3 and HL-13 coding sequences was performed using the same method for expression of XL-35. […] Purification and renaturation carried out as for XL35.

[3] = system: trypsinized, glutaraldehyde-fixed rabbit erythrocytes; assay: Erythrocyte agglutination assay; assay type: cell-based
Experimental: The assay was performed essentially as described using trypsinized, glutaraldehyde-fixed rabbit erythrocytes [Barondes and Roberson (1987) Methods Enzymol. 138, 516-20] in TCS buffer (10 mM Tris, pH 7.6, 10 mM CaCl2, 150 mM NaCl). To compare the agglutination properties of both the purified and recombinant lectins, the two lectins were assayed under similar conditions. Because the eluted recombinant lectin was in 8 M urea, a solution of purified non-recombinant lectin was also brought to 8 M with a concentrated urea solution. The agglutination assay was performed using […] of either recombinant or native XL35 lectin in […] TCS and 8 M urea was added to wells of a 96-well microtiter plate. Next, […] of TCS alone or TCS containing 0.4 M EDTA or 1.0 M melibiose or 1.0 M sucrose was added to the wells and mixed with the lectin solution. To this solution, 50 ml of a 1:1 suspension of trypsinized, glutaraldehyde-fixed rabbit erythrocytes in TCS was added and the contents of the wells were mixed by trituration. The final concentration of urea in the wells was 2 M, while that of EDTA was 0.10 M and that of melibiose and sucrose were 0.25 M. Agglutination activity was scored after 1.5 hr. at room temperature using an inverted microscope on low power. […]

Molecule | binding to immobilized melibiose [1] | concentration of urea required for solution [2] | agglutination activity retained relative to assay in TCS alone ([3]; after 1.5 hr in TCS plus 2 M urea) | agglutination of trypsinized, fixed rabbit erythrocytes ([3]; in 2 M urea)
B1 | no in vitro translation products of HL-3 and HL-13 bound; also recorded: do not appear to bind specifically |  |  | 
B2 |  | 2 M | 25-50% | active
B3 | no in vitro translation products of HL-3 and HL-13 bound; also recorded: do not appear to bind specifically |  |  | 
